Measured values as given in article PMC9663165, “Human immunomodulatory ligand B7-1 mediates synaptic remodeling via the p75 neurotrophin receptor” (The Journal of Clinical Investigation, 2022).

T1: B7-1–hIgG1 biotin (human, UniProt P33681 35-233, biotin on the AVI tag)
T1 construct: human B7-1 (CD80) ectodomain, residues 35-233; also called recombinant biotinylated B7-1–Fc protein; B7-1–Fc biotin; source: Expi293 cells stably expressing BirA, transiently transfected, purified; not shown: Fc (human IgG1), C-terminal, kept; AVI tag, C-terminal, kept
T1 sequence (looked up): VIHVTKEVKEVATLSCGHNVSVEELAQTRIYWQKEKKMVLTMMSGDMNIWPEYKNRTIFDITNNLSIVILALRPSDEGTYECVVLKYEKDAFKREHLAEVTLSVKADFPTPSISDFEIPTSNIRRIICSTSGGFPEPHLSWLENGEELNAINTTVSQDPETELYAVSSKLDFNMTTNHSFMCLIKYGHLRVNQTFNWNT

T2: human p75 neurotrophin receptor-GFP (human, UniProt P08138 29-427)
T2 construct: also called p75NTR; NGFR; source: HEK293F, transiently transfected, on cells; not shown: GFP, C-terminal, kept
T2 sequence (looked up): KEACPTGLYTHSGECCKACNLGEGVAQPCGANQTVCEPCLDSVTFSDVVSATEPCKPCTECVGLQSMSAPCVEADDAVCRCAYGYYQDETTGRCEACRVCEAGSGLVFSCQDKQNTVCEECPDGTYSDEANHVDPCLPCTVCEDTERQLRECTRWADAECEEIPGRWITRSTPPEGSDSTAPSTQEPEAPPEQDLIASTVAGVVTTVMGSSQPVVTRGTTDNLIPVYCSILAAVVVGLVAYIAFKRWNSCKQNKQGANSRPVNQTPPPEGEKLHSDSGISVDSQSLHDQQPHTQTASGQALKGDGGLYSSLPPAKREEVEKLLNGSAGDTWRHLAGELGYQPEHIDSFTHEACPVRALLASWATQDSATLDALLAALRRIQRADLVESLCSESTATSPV


Tests used:
B7-1–hIgG1 biotin = molecular target: T1, B7-1–hIgG1 biotin; experiment: flow cytometry on protein-coated beads; p75NTR-mIgG2a or CTLA-4–mIgG2a titrated (0 to 100 nM, 30 min) onto streptavidin beads coated with B7-1–hIgG1 biotin; detected with anti-mIgG2a; PBS 0.2% BSA pH 7.4; Hill fit; dimeric fusion proteins; details: both partners purified
[1] = molecular target: T2, human p75 neurotrophin receptor-GFP; experiment: flow cytometry on cells; recombinant B7-1-Fc or B7-1N82E-Fc titrated (up to 1.2 uM) onto cells expressing CTLA-4, CD28 or p75NTR; detected with an anti-mouse 647 labelled antibody; EC50 calculated; details: one partner purified
[2] = molecular target: T3, CD28 on cells (Figure S6) ( (human or mouse cDNA cloned), UniProt P10747 19-220); experiment: as above; details: one partner purified
T3 construct: CD28; Probably a C-terminal GFP fusion in HEK293F cells as in the other experiments; also called CD28 Expressing Cells; CD28 cells

[3] = molecular target: T4, CTLA-4 on cells (Figure S6) ( (human or mouse cDNA cloned), UniProt P16410 36-223); experiment: as above; details: one partner purified
T4 construct: CTLA-4; Probably a C-terminal GFP fusion in HEK293F cells as in the other experiments; also called CTLA-4 Expressing Cells; CTLA-4 cells
T4 sequence (P16410 36-223): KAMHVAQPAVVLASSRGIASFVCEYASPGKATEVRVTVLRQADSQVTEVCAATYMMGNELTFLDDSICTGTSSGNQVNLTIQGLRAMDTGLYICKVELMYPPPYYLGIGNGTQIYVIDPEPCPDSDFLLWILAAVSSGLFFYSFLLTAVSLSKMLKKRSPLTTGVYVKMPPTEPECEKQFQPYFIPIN

EC50 (B7-1–hIgG1 biotin)	EC50 [1]	EC50 [2]	EC50 [3]	Binder
16 nM	–	–	–	p75^NTR-mIgG2A (Fc fusion, UniProt P08138 29-250, looked up, p75NTR (NGFR) full-length ectodomain; also called p75^NTR-Fc; source: Expi293 suspension cells, transiently transfected, purified; not shown: Fc (mouse IgG2a), C-terminal, kept) KEACPTGLYTHSGECCKACNLGEGVAQPCGANQTVCEPCLDSVTFSDVVSATEPCKPCTECVGLQSMSAPCVEADDAVCRCAYGYYQDETTGRCEACRVCEAGSGLVFSCQDKQNTVCEECPDGTYSDEANHVDPCLPCTVCEDTERQLRECTRWADAECEEIPGRWITRSTPPEGSDSTAPSTQEPEAPPEQDLIASTVAGVVTTVMGSSQPVVTRGTTDN
–	285 nM	9.7 nM	0.69 nM	hB7-1-mIgG2A (Fc fusion, human, UniProt P33681 35-233, looked up, B7-1 (CD80), human, ectodomain residues 35-233; also called B7-1-Fc; WT B7-1-Fc; source: Expi293, transiently expressed, purified (Ni2+ His60 resin, S200 gel filtration); not shown: Fc (mouse IgG2a), C-terminal, kept) VIHVTKEVKEVATLSCGHNVSVEELAQTRIYWQKEKKMVLTMMSGDMNIWPEYKNRTIFDITNNLSIVILALRPSDEGTYECVVLKYEKDAFKREHLAEVTLSVKADFPTPSISDFEIPTSNIRRIICSTSGGFPEPHLSWLENGEELNAINTTVSQDPETELYAVSSKLDFNMTTNHSFMCLIKYGHLRVNQTFNWNT
–	–	10.3 nM	9.2 nM	hB7-1N82E-mIgG2A (Fc fusion, human, UniProt P33681 35-233, looked up, B7-1 (CD80), human, ectodomain residues 35-233 with N82E; also called B7-1N82E-Fc; source: Expi293, transiently expressed, purified (Ni2+ His60 resin, S200 gel filtration); not shown: Fc (mouse IgG2a), C-terminal, kept) VIHVTKEVKEVATLSCGHNVSVEELAQTRIYWQKEKKMVLTMMSGDMEIWPEYKNRTIFDITNNLSIVILALRPSDEGTYECVVLKYEKDAFKREHLAEVTLSVKADFPTPSISDFEIPTSNIRRIICSTSGGFPEPHLSWLENGEELNAINTTVSQDPETELYAVSSKLDFNMTTNHSFMCLIKYGHLRVNQTFNWNT
